# Laboratory results as given in the supplement of paper PMC10598134.
# ± gives the standard deviation.
# Experiments:
# [1] = collision cross section of unmodified peptide (TIMS, N2, iRT-aligned); higher = larger / more extended gas-phase ion
# Protocol: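 Unmodified synthetic counterpart peptides (ProteomeTools / JPT), analysed by nanoLC-TIMS-QTOF (dda-PASEF). 1/K0 was aligned run-wise to spiked iRT peptides and converted to CCS in N2 (Mason-Schamp). Values are the mean of 1-3 technical replicates for the most abundant feature at each charge state. The same unmodified peptide is repeated across rows and is averaged.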
# [2] = collision cross section of modified peptide (TIMS, N2, iRT-aligned); higher = larger / more extended gas-phase ion
# Procedure, shortened: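 On a timsTOF Pro/HT (dda-PASEF, nitrogen, ~2.4 mbar), synthetic peptide pools were analysed after a 120-min nanoflow C18 separation at 60 °C and identified in MaxQuant. Three reference ions served for 1/K0 calibration, with run-wise alignment to the median iRT peptide deviation. Collision cross section comes from the Mason-Schamp equation, using the most abundant feature per charge state averaged over 1–3 technical replicates.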
# [3] = charge state: 2, modification: GlyGly (K)
# [4] = charge state: 3, modification: GlyGly (K)
# [5] = charge state: 2, modification: Formyl
# [6] = charge state: 3, modification: Formyl
# [7] = charge state: 2, modification: Hydroxyproline
# [8] = charge state: 2, modification: Crotonyl
# [9] = charge state: 3, modification: Crotonyl
# [10] = charge state: 3, modification: Succinyl
# [11] = charge state: 2, modification: Phospho (Y)
# [12] = charge state: 2, modification: Propionyl
# [13] = charge state: 2, modification: Malonyl
# [14] = charge state: 2, modification: Butyryl
# [15] = charge state: 3, modification: Butyryl
# [16] = charge state: 2, modification: Succinyl
# [17] = charge state: 2, modification: Nitro (Y)
# [18] = charge state: 2, modification: hydroxyisobutyryl
# [19] = charge state: 3, modification: hydroxyisobutyryl
# [20] = charge state: 3, modification: Malonyl
# [21] = charge state: 2, modification: Dimethyl (K)
# [22] = charge state: 3, modification: Dimethyl (K)
substance,measurement,setting,value
GRGTGEAEEEYVGPR,collision cross section,[1]; charge state: 2,410.08 ± 0.96 Å²
same,collision cross section,[1]; charge state: 3,491.56 ± 0.9 Å²
LTEKELAEAASK,collision cross section,[1]; charge state: 2,387.7 ± 1 Å²
same,collision cross section,[1]; charge state: 3,479.05 ± 4.3 Å²
RFGGPVHHQAQR,collision cross section,[1]; charge state: 2,386.03 ± 0.46 Å²
same,collision cross section,[1]; charge state: 3,495.72 ± 1.2 Å²
LLIVSTTPYSEKDTK,collision cross section,[1]; charge state: 2,459.72 ± 2.9 Å²
same,collision cross section,[1]; charge state: 3,510.79 ± 5.4 Å²
APEYLHR,collision cross section,[1]; charge state: 2,313.96 ± 0.73 Å²
FVDSKVGEFSGANK,collision cross section,[1]; charge state: 2,415.64 ± 1.8 Å²
LGILPVGRGK,collision cross section,[1]; charge state: 2,351.11 ± 0.11 Å²
same,collision cross section,[1]; charge state: 3,438.91 ± 4.7 Å²
ELANFDPSRPGPPSGR,collision cross section,[1]; charge state: 3,494.4 ± 1 Å²
TLQKQSVVYGGK,collision cross section,[1]; charge state: 2,390.15 ± 1.7 Å²
same,collision cross section,[1]; charge state: 3,444.64 ± 5 Å²
ANLEKAQAELVGTADEATR,collision cross section,[1]; charge state: 2,474.85 ± 3.3 Å²
same,collision cross section,[1]; charge state: 3,519.38 ± 2.8 Å²
TGGTQTDLFTCGKCK,collision cross section,[1]; charge state: 2,431.32 ± 1.2 Å²
same,collision cross section,[1]; charge state: 3,479.49 ± 5.3 Å²
RFSPPSSSLQPGK,collision cross section,[1]; charge state: 2,393.03 ± 0.67 Å²
same,collision cross section,[1]; charge state: 3,484.72 ± 0.22 Å²
LSFGLEDEPLETATK,collision cross section,[1]; charge state: 2,426.44 ± 0.65 Å²
same,collision cross section,[1]; charge state: 3,496.99 ± 0.21 Å²
LQLEIDQKK,collision cross section,[1]; charge state: 2,366.48 ± 1.6 Å²
same,collision cross section,[1]; charge state: 3,427.93 ± 3.7 Å²
ESISVSSEQLAQFR,collision cross section,[1]; charge state: 2,416.66 ± 2.8 Å²
AQSYAQQLGR,collision cross section,[1]; charge state: 2,352.59 ± 0.74 Å²
RLPNVHGR,collision cross section,[1]; charge state: 2,332.52 ± 0.039 Å²
same,collision cross section,[1]; charge state: 3,419.7 ± 5.1 Å²
LGNTISSLFGGGTTPDAK,collision cross section,[1]; charge state: 2,447.17 ± 0.13 Å²
MTLSVLSR,collision cross section,[1]; charge state: 2,327.34 ± 0.14 Å²
YTCSFCGK,collision cross section,[1]; charge state: 2,338.71 ± 0.48 Å²
VPQAQPTKPALK,collision cross section,[1]; charge state: 2,384.79 ± 0.67 Å²
same,collision cross section,[1]; charge state: 3,486.38 ± 2.7 Å²
LGGDLGTYVINK,collision cross section,[1]; charge state: 2,369.28 ± 0.16 Å²
PRLPATGTFK,collision cross section,[1]; charge state: 2,354.31 ± 1.3 Å²
same,collision cross section,[1]; charge state: 3,450.95 ± 3.9 Å²
VNVEAPDVNLEGLGGKLK,collision cross section,[1]; charge state: 2,454.51 ± 2.9 Å²
same,collision cross section,[1]; charge state: 3,537.97 ± 2.9 Å²
ASDTSSETVFGKR,collision cross section,[1]; charge state: 2,399.16 ± 2.1 Å²
same,collision cross section,[1]; charge state: 3,477.62 ± 3.6 Å²
KYEEIDNAPEER,collision cross section,[1]; charge state: 2,401.01 ± 1.2 Å²
same,collision cross section,[1]; charge state: 3,466.95 ± 4.5 Å²
LGHYATQLQK,collision cross section,[1]; charge state: 2,363.47 ± 0.14 Å²
same,collision cross section,[1]; charge state: 3,429.28 ± 0.3 Å²
VLATQPGPGRGR,collision cross section,[1]; charge state: 2,368.04 ± 0.27 Å²
same,collision cross section,[1]; charge state: 3,447.7 ± 3 Å²
YEEIVKEVSTYIK [_YEEIVK(GlyGly (K))EVSTYIK_],collision cross section,[2]; [3],459.86 ± 0.94 Å²
same,collision cross section,[2]; [4],512.47 ± 1.1 Å²
DASTLQSQKAEGTGDAK [_DASTLQSQK(Formyl)AEGTGDAK_],collision cross section,[2]; [5],431.62 ± 0.17 Å²
same,collision cross section,[2]; [6],503.35 ± 3 Å²
GGRGTPGK [_GGRGTP(Hydroxyproline)GK_],collision cross section,[2]; [7],291.37 ± 3.4 Å²
GTISAPGKVVTAAAQAK [_GTISAPGK(Crotonyl)VVTAAAQAK_],collision cross section,[2]; [8],447.33 ± 0.83 Å²
same,collision cross section,[2]; [9],518.96 ± 1.2 Å²
TQDQISNIKYHEEFEK [_TQDQISNIK(Succinyl)YHEEFEK_],collision cross section,[2]; [10],549.89 ± 1.1 Å²
LDLSSLAYSGK [_LDLSSLAY(Phospho (Y))SGK_],collision cross section,[2]; [11],374.73 ± 0.68 Å²
LQDVSGQLSSSKK [_LQDVSGQLSSSK(Propionyl)K_],collision cross section,[2]; [12],399.52 ± 0.65 Å²
same,collision cross section,"[2]; charge state: 3, modification: Propionyl",471.63 Å²
DLGKFQVATDALK [_DLGK(Propionyl)FQVATDALK_],collision cross section,[2]; [12],407.94 Å²
FDDTNPEKEEAK [_FDDTNPEK(Malonyl)EEAK_],collision cross section,[2]; [13],398.04 ± 0.6 Å²
AGQKLIDVNHYAK [_AGQK(Butyryl)LIDVNHYAK_],collision cross section,[2]; [14],434.25 ± 1.1 Å²
same,collision cross section,[2]; [15],485.15 ± 2.9 Å²
DTPTSAGPNSFNKGK [_DTPTSAGPNSFNK(Succinyl)GK_],collision cross section,[2]; [16],411.39 ± 1.1 Å²
TVTNAVVTVPAYFNDSQR [_TVTNAVVTVPAY(Nitro (Y))FNDSQR_],collision cross section,[2]; [17],470.26 ± 1.5 Å²
same,collision cross section,"[2]; charge state: 3, modification: Nitro (Y)",559.7 ± 0.32 Å²
PASGAGAGAGAGKR [_PASGAGAGAGAGK(Butyryl)R_],collision cross section,[2]; [14],358.98 ± 1.3 Å²
same,collision cross section,[2]; [15],461.52 ± 2.9 Å²
SDDESSQKDIK [_SDDESSQK(GlyGly (K))DIK_],collision cross section,[2]; [3],380.21 ± 0.89 Å²
same,collision cross section,[2]; [4],442.7 ± 0.74 Å²
LLEQKTQESQK [_LLEQK(GlyGly (K))TQESQK_],collision cross section,[2]; [3],410.36 ± 1.9 Å²
same,collision cross section,[2]; [4],452.18 ± 1.1 Å²
VFIGNLNTLVVKK [_VFIGNLNTLVVK(Methyl (K))K_],collision cross section,"[2]; charge state: 2, modification: Methyl (K)",423.04 ± 1.2 Å²
same,collision cross section,"[2]; charge state: 3, modification: Methyl (K)",477.31 ± 4.3 Å²
FGTINIVHPKLGSYTK [_FGTINIVHPK(Formyl)LGSYTK_],collision cross section,[2]; [5],468.22 ± 1.4 Å²
same,collision cross section,[2]; [6],546.15 ± 1.5 Å²
VNIGQGSHPQKVK [_VNIGQGSHPQK(hydroxyisobutyryl)VK_],collision cross section,[2]; [18],435.4 ± 0.33 Å²
same,collision cross section,[2]; [19],488.96 ± 2.8 Å²
TAIQAAGYPDK [_TAIQAAGY(Nitro (Y))PDK_],collision cross section,[2]; [17],354.49 ± 0.55 Å²
VYVGNLGTGAGK [_VY(Phospho (Y))VGNLGTGAGK_],collision cross section,[2]; [11],364.53 ± 0.064 Å²
FGTINIVHPKLGSYTK [_FGTINIVHPK(Succinyl)LGSYTK_],collision cross section,[2]; [16],474.47 ± 1.3 Å²
same,collision cross section,[2]; [10],560.66 ± 0.77 Å²
SLFFGGKGAPLQR [_SLFFGGK(Succinyl)GAPLQR_],collision cross section,[2]; [16],401.28 ± 0.38 Å²
IHVQSSSDSSDEPAEKR [_IHVQSSSDSSDEPAEK(Malonyl)R_],collision cross section,[2]; [13],452 ± 1.6 Å²
same,collision cross section,[2]; [20],506.71 ± 1.6 Å²
ASAISIKLGSSK [_ASAISIK(Formyl)LGSSK_],collision cross section,[2]; [5],364.8 ± 0.89 Å²
DESFLGKLGGTLAR [_DESFLGK(hydroxyisobutyryl)LGGTLAR_],collision cross section,[2]; [18],419.07 ± 0.83 Å²
same,collision cross section,[2]; [19],498.29 ± 2.3 Å²
GTITVSAQELKDNR [_GTITVSAQELK(Dimethyl (K))DNR_],collision cross section,[2]; [21],437.65 ± 1.3 Å²
same,collision cross section,[2]; [22],475.47 ± 2.4 Å²
GGPGSTLSFVGKR [_GGPGSTLSFVGK(Crotonyl)R_],collision cross section,[2]; [8],386.64 ± 0.27 Å²
same,collision cross section,[2]; [9],427.61 ± 1.6 Å²
AGQKLIDVNHYAK [_AGQK(Gluratylation)LIDVNHYAK_],collision cross section,"[2]; charge state: 2, modification: Glutarylation",437.49 ± 0.96 Å²
same,collision cross section,"[2]; charge state: 3, modification: Glutarylation",489.6 ± 0.95 Å²
PSVSTKLISK [_PSVSTK(Butyryl)LISK_],collision cross section,[2]; [14],357.77 ± 1.8 Å²
LLIVSTTPYSEKDTK [_LLIVSTTPYSEK(Acetyl (K))DTK_],collision cross section,"[2]; charge state: 2, modification: Acetyl (K)",449.39 ± 2.3 Å²
same,collision cross section,"[2]; charge state: 3, modification: Acetyl (K)",486.31 ± 3 Å²
ALASIDSKLNQAK [_ALASIDSK(Dimethyl (K))LNQAK_],collision cross section,[2]; [21],412.97 ± 1.1 Å²
same,collision cross section,[2]; [22],457.79 ± 2.1 Å²
VSPASSVDSNIPSSQGYKK [_VSPASSVDSNIPSSQGYK(Malonyl)K_],collision cross section,[2]; [13],465.75 ± 0.51 Å²
same,collision cross section,[2]; [20],526.18 ± 21 Å²
LTSLNVKYNNDK [_LTSLNVK(Succinyl)YNNDK_],collision cross section,[2]; [16],411.65 ± 1.1 Å²
VYSGHQGR [_VY(Phospho (Y))SGHQGR_],collision cross section,[2]; [11],330.73 ± 0.068 Å²
same,collision cross section,"[2]; charge state: 3, modification: Phospho (Y)",415.14 ± 2.5 Å²
YEEIVKEVSTYIK [_YEEIVK(Trimethyl (K))EVSTYIK_],collision cross section,"[2]; charge state: 2, modification: Trimethyl (K)",455.74 ± 0.69 Å²
same,collision cross section,"[2]; charge state: 3, modification: Trimethyl (K)",498.32 ± 1.1 Å²
STGLELETPSLVPVKK [_STGLELETPSLVPVK(Biotin)K_],collision cross section,"[2]; charge state: 2, modification: Biotin",465.71 Å²
FGSRGGPGGGFR [_FGSR(Citrullination (R))GGPGGGFR_],collision cross section,"[2]; charge state: 2, modification: Citrullination (R)",349.6 ± 0.64 Å²
ALLQAKASGK [_ALLQAK(Formyl)ASGK_],collision cross section,[2]; [5],340.27 ± 0.87 Å²
YIEIYVQKVNPSR [_YIEIYVQK(Dimethyl (K))VNPSR_],collision cross section,[2]; [21],441.4 ± 1.2 Å²
same,collision cross section,[2]; [22],503.81 ± 1.6 Å²
LLEEEDSKLK [_LLEEEDSK(hydroxyisobutyryl)LK_],collision cross section,[2]; [18],385.85 ± 5.2 Å²
LLIVSTTPYSEKDTK [_LLIVSTTPYSEK(Butyryl)DTK_],collision cross section,[2]; [14],459.06 ± 0.51 Å²
same,collision cross section,[2]; [15],488.4 ± 2.4 Å²
GFPGIQGRK [_GFP(Hydroxyproline)GIQGRK_],collision cross section,[2]; [7],339.07 Å²
same,collision cross section,"[2]; charge state: 3, modification: Hydroxyproline",407.07 Å²
HELQANCYEEVKDR [_HELQANCYEEVK(Formyl)DR_],collision cross section,[2]; [6],490.46 Å²
DYSAPVNFISAGLKK [_DYSAPVNFISAGLK(Crotonyl)K_],collision cross section,[2]; [8],438.67 ± 0.84 Å²
same,collision cross section,[2]; [9],525.96 ± 1.3 Å²
